From the supplement of paper PMC7125110
± gives the standard error. Fewer inactive variants are shown than the library holds.

B1: glmS ribozyme (parent)
chain: AUAAAAGCGCCAGAACUACAGAAAUGUAGUUGACGAGGAGGAGGUUUAUCGAAUUUUCGGCGGAUGCCUCCAAA

Legend:
Conditions in all cases: with glucosamine-6-phosphate
[1] = variants of: B1; assay: self-cleavage kobs at 40 uM GlcN6P; higher = faster cleavage; RNA array
In short: (§1)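 In situ transcription by E. coli RNA polymerase produced barcoded ribozyme variants on sequenced MiSeq chips, and a hybridised Cy3 probe tracked them at 37 °C. Glucosamine-6-phosphate was flowed in at 40 μM to 10 mM in HEPES/KCl/Mg(OAc)2 buffer. kcat and KM were taken from weighted Michaelis–Menten fits of kobs values from exponential decay fits.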

[2] = variants of: B1; assay: self-cleavage kobs at 640 uM GlcN6P; higher = faster cleavage; RNA array
In short: as §1

[3] = variants of: B1; assay: self-cleavage kobs at 2500 uM GlcN6P; higher = faster cleavage; RNA array
In short: as §1

[4] = variants of: B1; assay: self-cleavage kobs at 10000 uM GlcN6P; higher = faster cleavage; RNA array
In short: as §1

[5] = variants of: B1; assay: self-cleavage kobs at 160 uM GlcN6P; higher = faster cleavage; RNA array
In short: as §1

Variant | self-cleavage kobs at 40 uM GlcN6P [1] | self-cleavage kobs at 640 uM GlcN6P [2] | self-cleavage kobs at 2500 uM GlcN6P [3] | self-cleavage kobs at 10000 uM GlcN6P [4] | self-cleavage kobs at 160 uM GlcN6P [5]
U54G G63A A64U C70U | < 1e-05 s⁻¹ | – | – | – | –
C50U C61U | < 1e-05 s⁻¹ | < 1e-05 s⁻¹ | < 1e-05 s⁻¹ | < 1e-05 s⁻¹ | –
U56A C70U C71U | 5.46e-05 ± 1.5e-05 s⁻¹ | 8.84e-05 ± 1.7e-05 s⁻¹ | 0.000232 ± 5.2e-05 s⁻¹ | 8.85e-05 ± 1.7e-05 s⁻¹ | –
U54G G62C U69C | < 1e-05 s⁻¹ | – | – | < 1e-05 s⁻¹ | –
U49C G66A | < 1e-05 s⁻¹ | – | – | < 1e-05 s⁻¹ | –
A64C G66U C68G | < 1e-05 s⁻¹ | < 1e-05 s⁻¹ | < 1e-05 s⁻¹ | – | –
G59C G62U | < 1e-05 s⁻¹ | – | – | < 1e-05 s⁻¹ | < 1e-05 s⁻¹
G62A A64C | < 1e-05 s⁻¹ | < 1e-05 s⁻¹ | < 1e-05 s⁻¹ | < 1e-05 s⁻¹ | < 1e-05 s⁻¹
C71U | 0.00128 ± 3.7e-05 s⁻¹ | 0.00716 ± 0.00034 s⁻¹ | 0.0256 ± 0.0014 s⁻¹ | 0.0553 ± 0.0027 s⁻¹ | 0.00366 ± 0.00023 s⁻¹
C67A C71U | 7.16e-05 ± 5.5e-06 s⁻¹ | 0.000414 ± 4.1e-05 s⁻¹ | 0.000679 ± 7.6e-05 s⁻¹ | 0.00183 ± 0.00025 s⁻¹ | 0.000151 ± 1.3e-05 s⁻¹
C68A U69C | < 1e-05 s⁻¹ | – | – | 4.51e-05 ± 1.6e-05 s⁻¹ | –
G59C C67G C70G | < 1e-05 s⁻¹ | – | – | – | –
G62U C70A | < 1e-05 s⁻¹ | – | – | – | –
U65G C71A | 4.51e-05 ± 1.7e-05 s⁻¹ | 0.000497 ± 5.7e-05 s⁻¹ | 0.000938 ± 0.00015 s⁻¹ | 0.00276 ± 0.00056 s⁻¹ | 6.43e-05 ± 2e-05 s⁻¹
U56C G59A | < 1e-05 s⁻¹ | – | – | – | –
G59C G60U | < 1e-05 s⁻¹ | < 1e-05 s⁻¹ | < 1e-05 s⁻¹ | < 1e-05 s⁻¹ | < 1e-05 s⁻¹
G59C C68U | < 1e-05 s⁻¹ | – | – | – | –
U56A C70U | 0.000377 ± 3.2e-05 s⁻¹ | 0.002 ± 0.00026 s⁻¹ | 0.0104 ± 0.0022 s⁻¹ | 0.0156 ± 0.0024 s⁻¹ | 0.000852 ± 0.00013 s⁻¹
C50G C61U A64G | 0.000244 ± 8.5e-05 s⁻¹ | 0.000192 ± 8.3e-05 s⁻¹ | – | 4.62e-05 ± 1.7e-05 s⁻¹ | 8.89e-05 ± 3.2e-05 s⁻¹
G59U C61A | < 1e-05 s⁻¹ | < 1e-05 s⁻¹ | – | < 1e-05 s⁻¹ | < 1e-05 s⁻¹
G59U C61U | < 1e-05 s⁻¹ | < 1e-05 s⁻¹ | – | < 1e-05 s⁻¹ | –
G51C G60U | < 1e-05 s⁻¹ | < 1e-05 s⁻¹ | – | < 1e-05 s⁻¹ | < 1e-05 s⁻¹

Variant | self-cleavage kobs at 40 uM GlcN6P [1] | self-cleavage kobs at 640 uM GlcN6P [2] | self-cleavage kobs at 2500 uM GlcN6P [3] | self-cleavage kobs at 10000 uM GlcN6P [4] | self-cleavage kobs at 160 uM GlcN6P [5]
C68U C70U C71U | < 1e-05 s⁻¹ | – | – | – | –
A53G U65C | 3.6e-05 ± 1.8e-05 s⁻¹ | 0.000302 ± 7.9e-05 s⁻¹ | 0.000224 ± 9.5e-05 s⁻¹ | 0.000644 ± 0.00014 s⁻¹ | –
U54C C71U | 0.000802 ± 8.6e-05 s⁻¹ | 0.00401 ± 0.00061 s⁻¹ | 0.0101 ± 0.0027 s⁻¹ | 0.036 ± 0.0094 s⁻¹ | 0.00142 ± 0.00023 s⁻¹
C50G C61A A64U | 9.82e-05 ± 1.8e-05 s⁻¹ | – | – | 0.000113 ± 1.8e-05 s⁻¹ | –
G60U C61G | < 1e-05 s⁻¹ | – | < 1e-05 s⁻¹ | < 1e-05 s⁻¹ | –
C61U C67A C70U | 4.32e-05 ± 1.7e-05 s⁻¹ | – | – | – | –
C50G G63C C71U | 7.02e-05 ± 2.9e-05 s⁻¹ | – | – | – | –
C67U C71G | 1.88e-05 ± 9.1e-06 s⁻¹ | 4.78e-05 ± 5.4e-06 s⁻¹ | 0.00068 ± 0.00033 s⁻¹ | 5.12e-05 ± 5.1e-06 s⁻¹ | 3.83e-05 ± 1.2e-05 s⁻¹
A53G C67A | 0.000314 ± 3.3e-05 s⁻¹ | 0.00067 ± 0.00014 s⁻¹ | 0.000612 ± 0.00025 s⁻¹ | 0.00957 ± 0.0018 s⁻¹ | –
G51C U57G | < 1e-05 s⁻¹ | < 1e-05 s⁻¹ | < 1e-05 s⁻¹ | – | < 1e-05 s⁻¹
A52U G63C A64U | < 1e-05 s⁻¹ | – | < 1e-05 s⁻¹ | – | –
C58G G62U C68A | 4.88e-05 ± 1.8e-05 s⁻¹ | – | – | – | –
G59C C71U | < 1e-05 s⁻¹ | < 1e-05 s⁻¹ | < 1e-05 s⁻¹ | < 1e-05 s⁻¹ | < 1e-05 s⁻¹
U49G C61U | < 1e-05 s⁻¹ | – | – | – | < 1e-05 s⁻¹
U55A C67U | 0.000401 ± 8.2e-05 s⁻¹ | 0.00589 ± 0.0022 s⁻¹ | – | 0.0154 ± 0.0038 s⁻¹ | 0.000667 ± 0.00022 s⁻¹
U55A C67A | 0.000444 ± 0.00015 s⁻¹ | 0.00115 ± 0.00052 s⁻¹ | – | 0.00563 ± 0.0018 s⁻¹ | –
A52C G62U C71A | < 1e-05 s⁻¹ | – | < 1e-05 s⁻¹ | – | –
G51C U57C C70G | < 1e-05 s⁻¹ | – | – | – | –
G51U U57C | < 1e-05 s⁻¹ | < 1e-05 s⁻¹ | – | < 1e-05 s⁻¹ | –
C50G G63A C68A U69C | 0.000106 ± 2.3e-05 s⁻¹ | – | – | 0.000147 ± 2.8e-05 s⁻¹ | –
U55C C61U | < 1e-05 s⁻¹ | – | – | – | –
C58G C68G | 3.25e-05 ± 1.1e-05 s⁻¹ | 9.11e-05 ± 1.1e-05 s⁻¹ | 9.87e-05 ± 1.7e-05 s⁻¹ | 1.82e-05 ± 7.1e-06 s⁻¹ | 6.63e-05 ± 1.4e-05 s⁻¹
